Measurements as given in doi:10.1101/324400 (bioRxiv, 2018).

Columns and labels:
[1] = molecular target: Eco RNAP β' subunit (in the opsEC) (E. coli, UniProt P0A8T7); experiment: cryo-EM structure
[2] = molecular target: Eco RNAP β subunit (in the opsEC) (E. coli, UniProt P0A8V2); experiment: cryo-EM structure
Chain of Eco RNAP β subunit (in the opsEC) (P0A8V2 whole entry): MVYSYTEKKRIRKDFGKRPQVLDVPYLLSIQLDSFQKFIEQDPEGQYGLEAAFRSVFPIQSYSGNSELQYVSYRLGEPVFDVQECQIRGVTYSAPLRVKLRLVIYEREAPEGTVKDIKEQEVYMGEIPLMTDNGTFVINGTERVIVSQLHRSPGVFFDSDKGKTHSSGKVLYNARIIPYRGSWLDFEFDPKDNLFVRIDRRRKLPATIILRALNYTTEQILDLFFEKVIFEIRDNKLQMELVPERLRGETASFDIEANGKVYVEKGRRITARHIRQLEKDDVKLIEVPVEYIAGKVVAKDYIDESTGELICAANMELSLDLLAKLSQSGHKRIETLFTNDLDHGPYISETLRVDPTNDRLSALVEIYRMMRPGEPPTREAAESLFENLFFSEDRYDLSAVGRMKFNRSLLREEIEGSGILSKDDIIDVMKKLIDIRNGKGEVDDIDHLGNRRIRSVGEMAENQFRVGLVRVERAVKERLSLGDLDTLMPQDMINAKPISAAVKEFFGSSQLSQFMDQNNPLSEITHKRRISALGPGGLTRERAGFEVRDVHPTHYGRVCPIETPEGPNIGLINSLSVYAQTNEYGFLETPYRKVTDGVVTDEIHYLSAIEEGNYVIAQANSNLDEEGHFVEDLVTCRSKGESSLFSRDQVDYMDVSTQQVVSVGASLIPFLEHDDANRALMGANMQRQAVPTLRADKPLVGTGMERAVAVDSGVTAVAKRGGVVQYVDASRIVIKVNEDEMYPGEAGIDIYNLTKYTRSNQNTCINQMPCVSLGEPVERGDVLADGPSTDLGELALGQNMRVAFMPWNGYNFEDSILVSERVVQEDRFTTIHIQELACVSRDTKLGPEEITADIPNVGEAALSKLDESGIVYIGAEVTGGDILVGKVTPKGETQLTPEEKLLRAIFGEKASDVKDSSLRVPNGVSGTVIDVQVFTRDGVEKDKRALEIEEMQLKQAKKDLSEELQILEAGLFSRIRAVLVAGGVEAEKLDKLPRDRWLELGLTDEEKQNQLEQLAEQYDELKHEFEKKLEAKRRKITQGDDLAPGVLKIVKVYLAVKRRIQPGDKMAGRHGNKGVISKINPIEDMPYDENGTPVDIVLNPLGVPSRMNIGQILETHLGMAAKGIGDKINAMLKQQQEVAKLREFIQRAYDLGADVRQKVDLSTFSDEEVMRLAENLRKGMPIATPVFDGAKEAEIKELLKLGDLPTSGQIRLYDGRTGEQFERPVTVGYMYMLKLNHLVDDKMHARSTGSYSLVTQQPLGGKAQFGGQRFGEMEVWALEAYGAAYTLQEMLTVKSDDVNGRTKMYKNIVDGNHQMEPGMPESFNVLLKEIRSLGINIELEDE

Chain of Eco RNAP β' subunit (in the opsEC) (P0A8T7 whole entry): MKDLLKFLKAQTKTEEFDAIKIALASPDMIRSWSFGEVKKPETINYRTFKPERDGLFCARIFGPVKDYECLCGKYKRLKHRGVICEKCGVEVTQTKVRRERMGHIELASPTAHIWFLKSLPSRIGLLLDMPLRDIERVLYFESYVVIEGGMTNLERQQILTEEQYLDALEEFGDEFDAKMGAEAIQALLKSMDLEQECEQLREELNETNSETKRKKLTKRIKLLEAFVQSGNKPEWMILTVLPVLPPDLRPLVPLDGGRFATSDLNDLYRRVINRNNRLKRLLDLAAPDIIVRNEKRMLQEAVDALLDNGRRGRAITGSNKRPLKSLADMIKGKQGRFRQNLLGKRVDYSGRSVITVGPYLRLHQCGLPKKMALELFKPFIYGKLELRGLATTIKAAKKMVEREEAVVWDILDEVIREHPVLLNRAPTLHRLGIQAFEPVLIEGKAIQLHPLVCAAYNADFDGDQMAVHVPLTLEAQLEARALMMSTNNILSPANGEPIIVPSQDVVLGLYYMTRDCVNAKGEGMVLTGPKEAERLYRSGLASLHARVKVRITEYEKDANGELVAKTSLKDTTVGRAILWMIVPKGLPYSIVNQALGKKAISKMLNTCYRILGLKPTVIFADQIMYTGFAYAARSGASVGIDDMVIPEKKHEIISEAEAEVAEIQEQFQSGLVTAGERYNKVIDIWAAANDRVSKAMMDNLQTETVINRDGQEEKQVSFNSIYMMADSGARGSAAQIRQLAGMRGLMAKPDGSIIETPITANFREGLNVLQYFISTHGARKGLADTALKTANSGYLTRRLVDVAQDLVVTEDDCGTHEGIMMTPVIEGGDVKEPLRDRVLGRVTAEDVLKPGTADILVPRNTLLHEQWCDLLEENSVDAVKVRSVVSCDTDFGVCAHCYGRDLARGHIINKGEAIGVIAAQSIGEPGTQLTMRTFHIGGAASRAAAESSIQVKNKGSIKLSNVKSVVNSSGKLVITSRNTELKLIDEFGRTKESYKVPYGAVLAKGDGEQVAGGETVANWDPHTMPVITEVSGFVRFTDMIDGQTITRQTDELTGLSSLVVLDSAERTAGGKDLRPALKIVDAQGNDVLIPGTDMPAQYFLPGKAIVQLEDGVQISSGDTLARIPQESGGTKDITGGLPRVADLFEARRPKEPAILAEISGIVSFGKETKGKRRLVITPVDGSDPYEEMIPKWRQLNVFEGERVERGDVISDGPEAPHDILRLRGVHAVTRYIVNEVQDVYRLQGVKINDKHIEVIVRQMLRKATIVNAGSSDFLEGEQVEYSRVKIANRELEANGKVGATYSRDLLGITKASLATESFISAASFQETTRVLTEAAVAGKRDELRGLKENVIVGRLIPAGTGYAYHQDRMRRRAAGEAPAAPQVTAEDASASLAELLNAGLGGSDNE

B1: wild-type Eco RfaH, full length (natural protein)
chain: MQSWYLLYCKRGQLQRAQEHLERQAVNCLAPMITLEKIVRGKRTAVSEPLFPNYLFVEFDPEVIHTTTINATRGVSHFVRFGASPAIVPSAVIHQLSVYKPKDIVDPATPYPGDKVIITEGAFEGFQAIFTEPDGEARSMLLLNLINKEIKHSVKNTEFRKL
What does the source list for B1?
binding result [1]: binds; binding result [2]: binds
